According to PMC3879712 (Cell Research, 2013):
Each block holds one molecule with its values, some of them ahead of it.

Columns and labels:
[1] = biological target: MLKL in membrane fraction (chemically cross-linked) (UniProt Q9D2Y4); assay: cross-linking
[2] = biological target: ND-HBD*-3×HA (mouse | not stated) (UniProt Q9D2Y4); assay: non-reducing SDS-PAGE with immunoblot
[3] = biological target: ND-HBD*-GFP-Flag (mouse | not stated) (UniProt Q9D2Y4); assay: SiMPull
[4] = biological target: the molecule itself; assay: non-reducing SDS-PAGE with immunoblot

Molecule: ND-HBD*-3×HA (from UniProt Q9D2Y4-2 1-190)
stoichiometry N [2]: 4

B1: endogenous MLKL of L929 cells (natural protein, mouse (endogenous in L929), UniProt Q9D2Y4-2 1-464, looked up)
chain: MDKLGQIIKLGQLIYEQCEKMKYCRKQCQRLGNRVHGLLQPLQRLQAQGKKNLPDDITAALGRFDEVLKEANQQIEKFSKKSHIWKFVSVGNDKILFHEVNEKLRDVWEELLLLLQVYHWNTVSDVSQPASWQQEDRQDAEEDGNENMKVILMQLQISVEEINKTLKQCSLKPTQEIPQDLQIKEIPKEHLGPPWTKLKTSKMSTIYRGEYHRSPVTIKVFNNPQAESVGIVRFTFNDEIKTMKKFDSPNILRIFGICIDQTVKPPEFSIVMEYCELGTLRELLDREKDLTMSVRSLLVLRAARGLYRLHHSETLHRNISSSSFLVAGGYQVKLAGFELSKTQNSISRTAKSTKAERSSSTIYVSPERLKNPFCLYDIKAEIYSFGIVLWEIATGKIPFEGCDSKKIRELVAEDKKQEPVGQDCPELLREIINECRAHEPSQRPSVDGILERLSAVEESTDKKV
stoichiometry N [4]: 4

Other lines, results leading:

stoichiometry N [1]: > 4
Molecule: MLKL in membrane fraction (chemically cross-linked) (from UniProt Q9D2Y4 1-472) (natural protein)

stoichiometry N [3]: < 4
Molecule: ND-HBD*-GFP-Flag (from UniProt Q9D2Y4-2 1-190)
